# B1: RepX (structured_RNA)
# RNA: GGGCAUUGAUUGCCUCCUUUGCAGGCAGUUGGUGGUUAGGCGCUGGCGGGGUCACUACCCCCGCCCUGCGCCGCUCU
# B2: FinP (structured_RNA)
# RNA: GGGACACAUAGGAACCUCCUCAAAGGAUUCUAUGGACAGUCGAUGCAGGGAGUGACAGCUCCCUGUAUCGGCGAUUUU
# Target: FinO (Salmonella enterica SL1344 (virulence …, UniProt A0A0H3P176 1-187))
# Experiment: EMSA; yeast RNA 1 ug/reaction; apparent Kd; 25 mM Tris-HCl pH 7.4, 150 mM NaCl, 1 mM MgCl2, 1 ug yeast RNA/reaction, 4 nM labeled RNA, 37 C, 1 h (EMSA) or 30 min (filter binding)
# Conditions: protein: recombinant, tags: His6-3C (expression plasmid pMiG007-His6-3C-FinO), label: 32P (5' end; 3' pCp alternative for probing)
Binder,"Kd (FinP-like stem-loops, short 3' tail) [nM]","Kd (two stem-loops (SLI, SLII) with 3' U tail) [nM]"
B1,~500,–
B2,–,~500

# — PMC8136791, “In vivo targets of Salmonella FinO include a FinP-like small RNA controlling copy number of a cohabitating plasmid”
